What was measured:
human whole blood = assay: Human whole blood thrombosis assay; assay type: cell-based; conditions: 10 minute endpoint; 5A.RC3 100 μg/ml, hirudin 800 U/ml
Protocol: Human whole blood collected in citrate (3.2%) was pre-incubated for 15 min at 37° C. with PE-conjugated anti-CD9 antibody (4 μg/mL) and an anti-fibrin antibody (5 μg/ml), and one of hirudin (800 U/ml), DMSO (1% v/v), PAR-1 antagonist E5555 (1 μM), anti-PAR4 antibody (0.2 mg/ml) or the combination of both PAR inhibitors. Whole blood was re-calcified with 5-7.5 mM CaCl2 (final concentration) to initiate coagulation, and drawn over glass microslides (1×0.1 mm internal diameter) coated with bovine type 1 collagen (250 μg/ml) at a fixed flow rate of 0.06 ml/min, resulting in a wall shear rate of 600 s^−1. Dual colour confocal fluorescence images were recorded at 488 and 561 nm excitation, collected through a 40× water immersion objective. Confocal z-stacks were continuously recorded for 2 min before modified, calcium-free Tyrode's buffer was flowed over the thrombi and z-stacks encompassing the entire height of the thrombus field were recorded over a period of 10 min. Platelet thrombi were defined using anti-CD9-PE and fibrin volume was quantified using average fluorescence of the thrombus field. Data were normalised against the hirudin baseline and expressed as a percentage of the control.
Thrombosis parameters including platelet deposition, thrombin activity, fibrin volume and ratio of fibrin per thrombus were measured in real-time over a period of 10 minutes in a whole blood thrombosis assay as described herein under conditions of coagulation.
Platelet deposition (PE-conjugated anti-CD9), thrombin activity (FRET-based thrombin probe), fibrin volume (Dylight650-conjugated anti-fibrin antibody) and the ratio of fibrin per thrombus at the 10 minute end-point is shown in FIG. 10A by confocal microscopy (to allow for volume measurements to be taken) using a Nikon Air with a 25× lens and 2× digital magnification.
The volume of human thrombi formed after 3 min was quantified by confocal microscopy in an ex vivo human whole blood thrombosis assay.

hPAR4 peptide [1] = biological target: T1, hPAR4 peptide (Homo sapiens, UniProt Q96RI0); assay: mAb capture SPR (Biacore, anti-mouse Fc capture); assay type: binding
T1 construct: host or cells: synthetic peptide
T1 sequence (Q96RI0 35-54 limits assumed): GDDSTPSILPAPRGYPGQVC
Protocol: (§1) Biacore analysis was performed on a Biacore T200 using two different methods either an anti-mouse Fc capture approach or using a similar method as described above using the ProteoOn system.
A series S CM5 sensor chip was activated with standard EDC/NHS amine coupling chemistry using the manufacturers recommended protocol with Goat anti-mouse IgG Fc. Anti-hPAR4 mAbs were captured at 1-2 ug/ml for 2 minutes at 10 ul/minute on flow cell 2 (FC2) and flow cell 1 (FC1) was used as a reference channel. […] Blank injections of buffer alone were also performed. All injections were performed in duplicate and in a random order. After each capture/injection/dissociation cycle the chip was regenerated with a 30 second injection of 0.1M Glycine pH2.0.
(§2) For the mAb capture method low levels of ligand mAb and analyte hPAR4 were used in an attempt to produce a 1:1 binding interaction, this method has been used successfully to measure kinetics and affinity KD's (Kamat V and Rafique A (2017) Analytical Biochemistry 530:75-86), despite using a whole IgG.
(§3) The kinetics of the binding interaction between the mAbs and hPAR4 was measured using Surface Plasmon Resonance (SPR; Biacore) by two different methods: 1. Anti-mouse Fc mAb capture method and 2. Streptavidin (SA) chip to capture biotinylated peptide. The ka(on) rate and kd(off) rates and KD were measured and fitted to a Langmuir model using the Biacore evaluation software.

hPAR4 peptide [2] = biological target: T1, hPAR4 peptide; assay: ELISA of purified mAbs on hPAR4 peptide; assay type: binding; conditions: dilutions of purified mAbs
Protocol: as §3
The experiment was completed with purified mAbs diluted in PBS instead of hybridoma supernatants.
The reactivity of seven purified anti-hPAR4 mAbs was analysed by ELISA (see Table 4).

[3] = biological target: T2, hPAR4-biotinylated peptide (Homo sapiens, UniProt Q96RI0); assay: SA chip biotin peptide SPR (Biacore, streptavidin capture); assay type: binding
T2 construct: host or cells: synthetic peptide
T2 sequence (Q96RI0 with tags, fused parts or gaps limits assumed): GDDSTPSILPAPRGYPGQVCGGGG
Protocol: as §1
A series S sensor chip SA was conditioned using the manufacturers recommended protocol and immobilised with 1 ug/ml hPAR4-biotinylated peptide on FC2 and hPAR1-biotinylated peptide as a control onto FC1. […] Blank injections of buffer alone were also performed. All injections were performed in duplicate and in a random order. After each capture/injection/dissociation cycle the chip was regenerated with a 30 second injection of 0.1M Glycine pH2.0.
as §2, §3

human platelets = assay: Functional screen of hybridoma supernatants by platelet aggregation assay; assay type: cell-based; conditions: aggregation as % of control
Protocol: Platelet aggregation was measured by light transmission aggregometry in a 96-well plate format. Human isolated platelets (2×10^8/ml) were pre-treated for 10 mins at 37° C. with dimethylsulfoxide (DMSO) (1% v/v), the PAR1 antagonist vorapaxar (90 nM), the anti-PAR4 antibody 5RC3 (20-100 μg/ml), or a combination of vorapaxar and 5RC3. Platelets were treated with one of thrombin (0.1 U/ml) and aggregation was analysed at 37° C. in a FLUOstar OPTIMA plate reader (BMG Labtech) using a 595 nm excitation filter, for a period of 50 min (10 read cycles with 5 min double orbital shake period between each read). Optical density was normalised against the blank (maximum) and unstimulated platelets (minimum) and expressed as % maximum.
Thrombin-induced platelet aggregation in the presence of a PAR1 antagonist (i.e. PAR4-dependent aggregation) is shown for 30 monoclonal antibody supernatants binding to human platelets. Antibody supernatant was mixed with human platelets (2×10^8 cells) at a 1:1 ratio.

ka (hPAR4 peptide [1]) [M⁻¹ s⁻¹]	kd (hPAR4 peptide [1]) [s⁻¹]	reactivity with hPAR4 peptide by ELISA (hPAR4 peptide [2])	ka [3] [M⁻¹ s⁻¹]	kd [3] [s⁻¹]	Molecule	Functional screen on hybridoma supernatants (human platelets)	other results
–	–	–	–	–	hirudin [reference compound]	–	fibrin volume (human whole blood): abolished; platelet deposition (human whole blood): continued platelet deposition; thrombin activity (human whole blood): abolished
14000	0.00146	least reactive	1.85e+06	0.000667	5I.RG1: anti-PAR4 monoclonal antibody, IgG3/K, SEQ ID NOs 45 and 46 (antibody, V domains shown, VH of 5I.RG1; VL of 5I.RG1) VH: QVQLQQWGAGLLKPSETLSLACAISSGSFSTYFWRWIRQPPGKGLEWIGEIIHTGSTTYNPSLKSRVTISVDTSKNQLSLKLSSVTAADTAVYYCAFEYSSSGGYYYGMDVWGQGTTVTVSS VL: DIQMTQSPSSLSASVGDRVTITCRASQSISSYLNWYQQIPGKAPNLLIYAASSLRSGVPSRFSGSGSGTDFTLTISSLQPEDFATYYCQQTYSTPLTFGGGTKVEIK	–	–
–	–	–	–	–	MoB5I G1: hybridoma supernatant clone, second screening; likely parent of 5I.RG1 (antibody, V domains shown) VH: QVQLQQWGAGLLKPSETLSLACAISSGSFSTYFWRWIRQPPGKGLEWIGEIIHTGSTTYNPSLKSRVTISVDTSKNQLSLKLSSVTAADTAVYYCAFEYSSSGGYYYGMDVWGQGTTVTVSS VL: DIQMTQSPSSLSASVGDRVTITCRASQSISSYLNWYQQIPGKAPNLLIYAASSLRSGVPSRFSGSGSGTDFTLTISSLQPEDFATYYCQQTYSTPLTFGGGTKVEIK	Yes (+) (aggregation between 50-80% of control)	–
58400	0.00227	least reactive	1.84e+06	0.00111	5H.RF2: anti-PAR4 monoclonal antibody, IgG2a/K, SEQ ID NOs 107 and 108 (antibody, V domains shown, VH of 5H.RF2; VL of 5H.RF2) VH: QVQLQQWGAGLLKPSETLALTCAVYGGSLSDYYWSWIRQPPGKGLEWIGEINHSGTTNYNPSLKSRVTISVDTSKKQFSLKLSSVTAADTAVYYCAIEYSNSRGYYYGMDVWGQGTTVTVSS VL: DIQMTQSPSSLSASAGDRITITCRASQTISNYLNWYQQKPGKAPKLLIYAASSLQSGVPSRFSGSGSGTDFTLTISSLQPEDFASYYCRQNYNTPLTFGGGTKVEIK	–	–
–	–	–	–	–	MoB5H H4: hybridoma supernatant clone, second screening; likely parent of 5H.RH4 (antibody, V domains shown) VH: QVQLQQWGAGLLKPSETLSLTCAVYGGSFSNYYWSWIHQPPGKGLEWIGEINHSGSTNYNPSLKSRVTISVDTSKKQFSLNLSSVTAADTAVYYCKVEHSSSSGHYYYGMDVWGQGTTVTVSS VL: DIQMTQSPSSLSASVGDRVTITCRASQTISYYLNWYQQKPGKAPKLLIYAASRLQSGVPSRFSGSGSGTDFTLTISSLQPEDFTTYYCQQSYSTPLTFGGGTKVGIK	Yes (+) (aggregation between 50-80% of control)	–
–	–	–	–	–	MoB5H F2: hybridoma supernatant clone, second screening; likely parent of 5H.RF2 (antibody, V domains shown) VH: QVQLQQWGAGLLKPSETLALTCAVYGGSLSDYYWSWIRQPPGKGLEWIGEINHSGTTNYNPSLKSRVTISVDTSKKQFSLKLSSVTAADTAVYYCAIEYSNSRGYYYGMDVWGQGTTVTVSS VL: DIQMTQSPSSLSASAGDRITITCRASQTISNYLNWYQQKPGKAPKLLIYAASSLQSGVPSRFSGSGSGTDFTLTISSLQPEDFASYYCRQNYNTPLTFGGGTKVEIK	no	–
